# Test: soluble on expression in E. coli; label from the status in PepcDB or PDB records
row,Sequence,soluble on expression in E. coli
1,MDVNQFTELITKLQSADNDIRKQAEEVYEKIEGPTKVAALFEAYTHHTNNSDARSTVLVFLRRVLARDWDAIWETLNEENKQRILAKVLEMIVHETELSIKKKIADLISEIASNLIDDSGDMTWGGVLELMDHCLKSEDLTGNYIALLILRGCPIIFGNRLAHFLPTLKVVLEKCMATPDLQIKATAVRAVIAFAVDNDEEKDVVRLMTSLVPNVLQVCNETSDEDDSDGPLGEFAELASSLPKCLNTHMSQVLQVTLAIAGNKEKNEMVRQNAIEVICSYMESAPKGLKKYAPGALGPILETLLSCMTEMDDDVLNEWLNEIEEEEDYEDIPIIAESAIDRVACCINGKVMLPVFLPLVEKLLTSEDWKMKHAALRAFSAVGEGCQRSMEPHIEQIMAHITNYVNDAHPRVQYAACNAIGQMSSDFAPTLQKKCHAAVIPALLESLDRTDVPRVCAHAASALVNFAEECPKSIIGQYLPFILQKLENVLSAVFNRLGDKRYQVVVENIVTAIASVAEAAEELFKEHHARLIPNLVHILQNVGELKELRGKTIECISLIGYAVGKEQFHATAIEILNLLGDGMKDLAIDDPQYSYMISSWTRFCSILGADFAPFLPVVMDPVLRAARYRPDFNIFNNEDVHENEEGVEYHGIGGEKTVGIRTSGLEEKATACDMLVAFAKEMKEAFMPYVVDVYELAIKNLDFGLHDGVRTASAEIMPCLLTCVEKQGLADKRRLWCEFLKALTTSMEEEDDVEILASFMTTIGSCIEVMKTEGIAEEEVQLIISVLLKQLENYGKRMSDRPVEDEDDDDAEAKEELDYFMELEASCLGAISDLTHSLMKEFKGTIFEGMINVFNCAIQLIEGSKQYFERQWGMCLLDDAIEFGVGHMPTRFPKLIPIMYKLLGDEYPEVRQAASYGFGVMAINYHQISDYRNEILSCLEPLAAMIQREDARATEESTVATENAISAFAKIIGNVPLPAEAYGKVVEMFLSWLPTYSDTEESPYIYTCLAELFDKQDAALFGPENQNLPRIFLVCLLSIANDAFNDDDSGNQTKQRIVTILKQIYASFPQFAQQDGIDEHLTSVLQQTLNGQ,not soluble
2,MGSDKIHHHHHHMKDSALRVGIYQGPEIPQSFKVYAENVWRHLPKQDIATIPFKDRKDLPKSADVLWDIRSGGGNPPPDFLLEHPLPPLVVTVHGFAPLSLNGWEYFRTLKGLIMSGQYAKHKRERWREVRTAVGSIIAVSAFVKDEAIRFTGVPADRIHVCHHGVDGNAFTPGPDTESEPYFFHVSNDEPRKNVGAIVRAFRQLRRHCRVQLVLKLPEESARNYEKIEGIRVLSGFLTTEELVHLYRHALAFIFPSLYEGFGLPILEAMACGCPVITSNVSACREIAGEAARTINPRNESELLEAMEILYRNPEERRARTAMGLRRALGFSWEESAKCHARVLYMTADRNAPVASPD,not soluble
3,MKNICFINGSPRSKKANSTLYLNLIDKSLDSKNYTKYYIDTTSSIKGDLESTFKTLLDADYIILAFPLYVYSMPSLLVRFLEDYYIYLKNKDTISQKTNLYAVVNCGFPDAKMNVEALKIVFNCCKKLNINFRFGIGIGAGEFVNFSKNNPLLNKLSSCVYKSINKITYDIENQVSIEINNIFVNPKIPRRLFFIFGHIFWKKWAKRNGIKISALFDKPLEHHHHHH,not soluble
4,MAHHHHHHMKWKWYNTKNICTLTNVFLSKHPYKPKTREIIHPHMTPPEYLAPSDCFQAKTGELQQYIPNNYYRVKWIESLRSGEYLGEDYPWNLLPNWKYWRKRKYNVKYEEIPWFISKVKGVSYYKRLNVWMVQWVENGVHRIRRFRCAFGLLQAKLAAEQFRKKLEEAGRVDNRKTERQIRMDYIQKKDERLLRKKKYSKISKGQF,not soluble
5,SASKIKGRPPKQPKVTPALPSNDSQQLHENNPGNNLALETCGESSSSHGTGGPKPGPSKKTLNERKRKYGVSVNKTVQNIEWNVDHFLKVQHERRQELYKDYSHQFLTLVMMWNIDVDQIKKQAGKLSDILDEQQKLFQQFQSIHMQKIEEFKELCDRHLKNLQAIKCCRRKAIIEEARKLMDYLEKRVTEETVHVNKQEAKDGVQSSLLSLLIS,soluble

# From the DeepSol protein solubility set
